Assays:
[1] = molecular target: T1, silk fibroin, sericin-depleted, from degummed Bombyx mori silk (dissolved in 9.3 M LiBr, dialysed, then gelled or precipitated) (Bombyx mori), P05790; test: HPLC of 23RGD extracted from silk precipitate, formulation SCLO, against the calculated molar ratio
[2] = molecular target: T1, silk fibroin, sericin-depleted, from …; test: HPLC of 23RGD extracted from silk precipitate, formulation printed as RMED, against the calculated molar ratio
[3] = molecular target: T1, silk fibroin, sericin-depleted, from …; test: HPLC of 23RGD extracted from lyophilized silk precipitate, formulation 0.6S 3R 10:1
[4] = molecular target: T1, silk fibroin, sericin-depleted, from …; test: HPLC of 23RGD extracted from lyophilized silk precipitate, formulation printed as RMED
[5] = molecular target: T1, silk fibroin, sericin-depleted, from …; test: HPLC and dry mass of silk precipitates, over all formulations
[6] = molecular target: T1, silk fibroin, sericin-depleted, from …; test: HPLC of 23RGD extracted from the final rinsed 23RGD-enhanced silk gel
[7] = molecular target: T1, silk fibroin, sericin-depleted, from …; test: HPLC of 23RGD extracted from lyophilized silk precipitate, formulation SCLO
[8] = molecular target: T1, silk fibroin, sericin-depleted, from …; test: HPLC of 23RGD extracted from lyophilized silk precipitate, formulation BASE
[9] = molecular target: T1, silk fibroin, sericin-depleted, from …; test: HPLC of 23RGD extracted from silk precipitate, formulation BASE, against the calculated molar ratio
[10] = molecular target: T1, silk fibroin, sericin-depleted, from …; test: HPLC of 23RGD extracted from lyophilized silk precipitate, formulation SCVLO
[11] = molecular target: T1, silk fibroin, sericin-depleted, from …; test: HPLC of 23RGD extracted from lyophilized silk precipitate, formulation AVHI
[12] = molecular target: T1, silk fibroin, sericin-depleted, from …; test: HPLC of 23RGD extracted from silk precipitate, formulation ECLO, against the calculated molar ratio
[13] = molecular target: T1, silk fibroin, sericin-depleted, from …; test: HPLC of 23RGD extracted from silk precipitates; plateau over the formulations
[14] = molecular target: T1, silk fibroin, sericin-depleted, from …; test: HPLC of 23RGD extracted from silk precipitate, formulation AVLO, against the calculated molar ratio
[15] = molecular target: T1, silk fibroin, sericin-depleted, from …; test: HPLC of 23RGD extracted from lyophilized silk precipitate, formulation AVLO
[16] = molecular target: T1, silk fibroin, sericin-depleted, from …; test: HPLC of 23RGD extracted from lyophilized silk precipitate, formulation printed as RLO
[17] = molecular target: T1, silk fibroin, sericin-depleted, from …; test: HPLC of 23RGD extracted from lyophilized silk precipitate, formulation RHI

bound RGD, fold of the calculated (expected) amount [1]: 2 fold
bound RGD, fold of the calculated (expected) amount [2]: 2 fold
23RGD:silk ratio (bound) (mol 23RGD per mol silk) [3]: 10
23RGD:silk ratio (bound) (mol 23RGD per mol silk) [4]: 6.95
percent of 23RGD precipitated with silk [5]: 5 to 30%
23RGD:silk molar ratio (bound) (mol 23RGD per mol silk) [6]: 3.35
23RGD:silk ratio (bound) (mol 23RGD per mol silk) [7]: 9.9
23RGD:silk ratio (bound) (mol 23RGD per mol silk) [8]: 8.7
bound RGD, fold of the calculated (expected) amount [9]: 2 fold
23RGD:silk ratio (bound) (mol 23RGD per mol silk) [10]: 11
23RGD:silk ratio (bound) (mol 23RGD per mol silk) [11]: 10.5
bound RGD, fold of the calculated (expected) amount [12]: 1.5 fold
apparent saturation, RGD molecules per molecule of silk (mol 23RGD per mol silk) [13]: 10
bound RGD, fold of the calculated (expected) amount [14]: 2 fold
23RGD:silk ratio (bound) (mol 23RGD per mol silk) [15]: 5.2
23RGD:silk ratio (bound) (mol 23RGD per mol silk) [16]: 1.1
23RGD:silk ratio (bound) (mol 23RGD per mol silk) [17]: 10.7
Binder: GRGDIPASSKGGGGSRLLLLLLR (modifications not checked) [23RGD peptide (amphiphilic peptide: RGD motif, spacer region, leucine tail; 23 amino acids)]
